Measured values from the supplement of paper PMC7877785.
± gives the uncertainty stated by the source.

Assay: self-splicing fitness, log relative to wild type (ln ratio); higher = more splicing; Tetrahymena group I intron in knt gene, E. coli kanamycin selection, DiMSum; sequences stand for … in CUCUCU…GGAGGGAAAAGUUAUCAGGCAUGCACCUGGUAGCUAGUCUUUAAACCAAUAGAUUGCAUCGGUUUAAAAGGCAAGACCGUCAAAUUGCGGGAAAGGGGUCAACAGCCGUUCAGUACCAAGUCUCAGGGGAAACUUUGAGAUGGCCUUGCAAAGGGUAUGGUAAUAAGCUGACGGACAUGGUCCUAACCACGCAGCCAAGUCCUAAGUCAACAGAUCUUCUGUUGAUAUGGAUGCAGUUCACAGACUAAAUGUCGGUCGGGGAAGAUGUAUUCUUCUCAUAAGAUAUAGUCGGACCUCUCCUUAAUGGGAGCUAGCGGAUGAAGUGAUGCAACACUGGAGCCGCUGGGAACUAAUUUGUAUGCGAAAGUAUAUUGAUUAGUUUUGGAGUACUCGUGGUCG
Summary of the method: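 DiMSum derived fitness as the error-weighted combination of fold changes across replicates, kanamycin versus no kanamycin, normalised to wild type. E. coli BL21(DE3) held the library, which randomised all eight P1ex-region intron nucleotides within the knt kanamycin-resistance gene on pET-22b(+). Six replicate transformations grew overnight at 37°C or 30°C on LB agar with or without 25 μg/mL kanamycin, also containing 100 μg/mL carbenicillin, 50 μM IPTG and 0.2% rhamnose, and pooled colonies were amplicon-sequenced on an Illumina HiSeq 2500.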

Sequence	self-splicing fitness (ln) (30 °C)	self-splicing fitness (ln) (37 °C)
ACACAGCAAUAUUACGUCGG	-1.65 ± 0.052	-1.16 ± 0.071
AGGAAGCAAUAUUACGUCAG	-2.97 ± 0.25	-2.41 ± 0.33
UGACAGCAAUAUUACGCACC	-1.38 ± 0.12	-0.767 ± 0.17
ACACAGCAAUAUUACGGUGA	-1.31 ± 0.068	0.17 ± 0.077
ACAUAGCAAUAUUACGAUCG	0.0966 ± 0.084	-0.312 ± 0.13
UAGUAGCAAUAUUACGUUAA	-2.34 ± 0.17	-2.06 ± 0.17
AUGUAGCAAUAUUACGUCCU	-0.674 ± 0.13	0.252 ± 0.19
GGGGAGCAAUAUUACGGCCA	-0.941 ± 0.2	0.555 ± 0.21
AACUAGCAAUAUUACGUAGA	-1.76 ± 0.079	-0.779 ± 0.11
GGAGAGCAAUAUUACGGGAG	-4.1 ± 0.21	-2.37 ± 0.23
CCUUAGCAAUAUUACGUUGG	-3.71 ± 0.21	-3.32 ± 0.26
UUAGAGCAAUAUUACGAUCU	-2.45 ± 0.24	-3.11 ± 0.3
UCUGAGCAAUAUUACGAGCG	-1.93 ± 0.15	-2.37 ± 0.39
GCAGAGCAAUAUUACGCAGG	-4.06 ± 0.39	-2.2 ± 0.22
AUACAGCAAUAUUACGAGAG	-3.39 ± 0.14	-2.1 ± 0.088
CGAUAGCAAUAUUACGAGCA	-3.83 ± 0.26	-1.86 ± 0.17
CCACAGCAAUAUUACGAUGA	-1.9 ± 0.11	-1.77 ± 0.12
UUCGAGCAAUAUUACGUCAG	-3.92 ± 0.43	0.987 ± 0.26
CCAUAGCAAUAUUACGAUCA	-2.94 ± 0.18	-3.23 ± 0.29
GUUGAGCAAUAUUACGUGCA	-1.65 ± 0.45	-0.908 ± 0.28
GCCCAGCAAUAUUACGGUAC	-1.27 ± 0.059	-0.241 ± 0.073
UUUGAGCAAUAUUACGAUGA	-0.96 ± 0.19	-0.161 ± 0.21
CCUCAGCAAUAUUACGACGU	-3.17 ± 0.18	-2.68 ± 0.24
UGAGAGCAAUAUUACGAUUG	-2.57 ± 0.27	-1.14 ± 0.27
ACAGAGCAAUAUUACGGAAU	-4.08 ± 0.29	-1.86 ± 0.31
UUCCAGCAAUAUUACGACUA	-0.435 ± 0.097	-0.117 ± 0.085

Sequence	self-splicing fitness (ln) (30 °C)	self-splicing fitness (ln) (37 °C)
AGCCAGCAAUAUUACGCUCU	-1.94 ± 0.1	-0.912 ± 0.13
UAGAAGCAAUAUUACGGCAA	-0.122 ± 0.075	-0.249 ± 0.088
CAGGAGCAAUAUUACGUUUG	-3.14 ± 0.14	-1.43 ± 0.14
UUCCAGCAAUAUUACGAUUC	-1.5 ± 0.17	-2.04 ± 0.27
AACAAGCAAUAUUACGGUGU	-2.51 ± 0.056	-1.45 ± 0.068
GUCAAGCAAUAUUACGCAAU	-2 ± 0.061	-1.32 ± 0.076
CAAUAGCAAUAUUACGGGUC	-3.28 ± 0.34	-2.4 ± 0.48
UUCUAGCAAUAUUACGACCU	-0.905 ± 0.42	-2.63 ± 0.44
GUACAGCAAUAUUACGACGC	-0.428 ± 0.092	-0.206 ± 0.1
CAUUAGCAAUAUUACGGAAC	–	-0.879 ± 0.24
UACUAGCAAUAUUACGUUAA	-2.1 ± 0.18	-1.43 ± 0.18
CUCGAGCAAUAUUACGCCGG	-3.32 ± 0.43	-1.17 ± 0.34
UUUAAGCAAUAUUACGCGAG	-0.722 ± 0.11	0.0933 ± 0.13
GUUCAGCAAUAUUACGACAC	-0.34 ± 0.15	0.897 ± 0.18
ACUUAGCAAUAUUACGGGGG	-2.98 ± 0.23	-1.96 ± 0.21
CUCGAGCAAUAUUACGGGAG	–	-1.11 ± 0.22
GUACAGCAAUAUUACGUUAA	-2.28 ± 0.12	-1.98 ± 0.15
UUUCAGCAAUAUUACGCAAC	-3.51 ± 0.28	-1.8 ± 0.22
ACCGAGCAAUAUUACGCUAA	-3.28 ± 0.32	-2.05 ± 0.28
UAUCAGCAAUAUUACGGCAU	-1.14 ± 0.071	-0.0824 ± 0.075
GGAAAGCAAUAUUACGUGGA	-3.49 ± 0.28	-1.96 ± 0.23
AUCUAGCAAUAUUACGAACC	-1.08 ± 0.18	-0.855 ± 0.2
AUACAGCAAUAUUACGGGCC	-2.7 ± 0.17	-2.82 ± 0.44
GUCAAGCAAUAUUACGUUUG	–	-3.38 ± 0.2
GCUCAGCAAUAUUACGCUAU	-1.61 ± 0.11	-0.658 ± 0.097
CAGAAGCAAUAUUACGUUUG	-3.42 ± 0.19	-2.54 ± 0.2

Sequence	self-splicing fitness (ln) (30 °C)	self-splicing fitness (ln) (37 °C)
CAGCAGCAAUAUUACGCUAA	-2.47 ± 0.2	-1.72 ± 0.13
UCACAGCAAUAUUACGGCCC	-3.44 ± 0.45	-1.82 ± 0.44
CGAAAGCAAUAUUACGGAAU	-3.69 ± 0.29	-2.15 ± 0.49
GUGCAGCAAUAUUACGACAU	-0.587 ± 0.013	-0.143 ± 0.032
ACCAAGCAAUAUUACGCAGC	-1.83 ± 0.11	-1.12 ± 0.13
UCCAAGCAAUAUUACGCUAA	-2.62 ± 0.14	-1.36 ± 0.13
GUAGAGCAAUAUUACGGGUC	-2.19 ± 0.12	-1.37 ± 0.12
CGUUAGCAAUAUUACGCAGG	-1.3 ± 0.1	-1.26 ± 0.16
GUGGAGCAAUAUUACGCAUG	-3.81 ± 0.21	-1.8 ± 0.15
CUGAAGCAAUAUUACGAAGA	-2.5 ± 0.36	-0.888 ± 0.25
UCCGAGCAAUAUUACGCUGA	-2.04 ± 0.12	-1.97 ± 0.14
AUUAAGCAAUAUUACGUCGC	-3.33 ± 0.22	-2.8 ± 0.25
AUCGAGCAAUAUUACGCCUC	-2.06 ± 0.39	-1.98 ± 0.45
GCUGAGCAAUAUUACGAAUC	-1.15 ± 0.12	-0.914 ± 0.17
UCGUAGCAAUAUUACGGGCA	-0.422 ± 0.14	-0.0787 ± 0.13
UGUAAGCAAUAUUACGGUAC	-1.81 ± 0.45	–
AGACAGCAAUAUUACGGACC	-0.551 ± 0.075	-0.201 ± 0.086
UGAGAGCAAUAUUACGAUGG	-3.59 ± 0.23	-2.72 ± 0.2
ACAAAGCAAUAUUACGAUAG	-3.47 ± 0.17	-2.21 ± 0.19
CGCAAGCAAUAUUACGCUAC	–	-2.82 ± 0.48
CCGUAGCAAUAUUACGCGAG	-3.82 ± 0.24	-2.76 ± 0.32
AGGGAGCAAUAUUACGGGAU	-3.19 ± 0.46	-1.48 ± 0.28
UCCUAGCAAUAUUACGUUAU	-2.99 ± 0.19	-2.59 ± 0.24
CAAUAGCAAUAUUACGUAAU	-3.35 ± 0.21	-1.92 ± 0.18
